Data from patent publication US20050234221A1.

Biological target: IL-17 receptor like polypeptide on human B-lymphoblast cell line GM3104A (human) (UniProt Q9NRM6)
Assay: cell-based or functional assay

Sequence of recombinant human IL-17E-Fc fusion protein (chain): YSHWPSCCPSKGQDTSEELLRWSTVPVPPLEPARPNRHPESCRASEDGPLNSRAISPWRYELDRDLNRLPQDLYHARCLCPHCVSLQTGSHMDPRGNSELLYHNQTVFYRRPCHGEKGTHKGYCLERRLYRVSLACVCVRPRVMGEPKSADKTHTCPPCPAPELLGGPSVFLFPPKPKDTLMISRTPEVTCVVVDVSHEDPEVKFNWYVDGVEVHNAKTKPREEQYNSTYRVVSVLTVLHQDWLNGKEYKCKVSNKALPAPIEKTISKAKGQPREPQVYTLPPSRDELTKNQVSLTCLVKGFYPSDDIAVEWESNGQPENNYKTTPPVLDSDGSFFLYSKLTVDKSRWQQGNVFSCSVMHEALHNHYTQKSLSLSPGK

IL-1α (pg/ml) released by GM3104A cells: 25 pg/mL
IL-6 (pg/ml) released by GM3104A cells: 362 pg/mL
TNF-α (pg/ml) released by GM3104A cells: 460 pg/mL
Substance: recombinant human IL-17E-Fc fusion protein
